Measured values as given in the supplement of paper PMC10065799, “High-throughput profiling of sequence recognition by tyrosine kinases and SH2 domains using bacterial peptide display” (eLife, 2023).

Columns and labels:
EPHB2 = EPHB2 (UniProt P29323); assay: phosphorylation enrichment, bacterial display (enrichment ratio); higher = better substrate or ligand; peptides without Tyr show the background
FGFR3 = FGFR3 (UniProt P22607); assay: as above
FGFR1 = FGFR1 (UniProt P11362); assay: as above
Jak2 = Jak2 (UniProt O60674); assay: as above
EPHB1 = EPHB1 (UniProt P54762); assay: as above
MERTK = MERTK (UniProt Q12866); assay: as above
c-Src = assay: as above
Fer (mouse) = assay: as above
c-Abl (mouse) = assay: as above
Fyn = Fyn (UniProt P06241); assay: as above
Hck = Hck (UniProt P08631); assay: as above
Fes = Fes (UniProt P07332); assay: as above
AncSZ = assay: as above
SHP2-C SH2 = assay: SH2 binding enrichment of the phosphorylated peptide, bacterial display (enrichment ratio); higher = better substrate or ligand; peptides without Tyr show the background
Grb2 SH2 = Grb2 SH2 (UniProt P62993); assay: as above
c-Src SH2 = assay: as above
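Throughout, for SH2 binding enrichment of the phosphorylated peptide, bacterial display: peptide library displayed on the E. coli surface as eCPX fusions, selected cells deep-sequenced, score is each peptide's frequency after selection divided by its frequency in the input.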
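Throughout, for phosphorylation enrichment, bacterial display: 11-residue human phosphosite peptides and single-mutation variants displayed on the E. coli surface, counted by deep sequencing, each peptide's frequency after selection divided by its frequency in the unselected input library; frequency after pTyr selection over input frequency; kinase dosed for 20-30% of maximal phosphorylation in three min.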

Sequence of FGFR3 (P22607 whole entry, looked up): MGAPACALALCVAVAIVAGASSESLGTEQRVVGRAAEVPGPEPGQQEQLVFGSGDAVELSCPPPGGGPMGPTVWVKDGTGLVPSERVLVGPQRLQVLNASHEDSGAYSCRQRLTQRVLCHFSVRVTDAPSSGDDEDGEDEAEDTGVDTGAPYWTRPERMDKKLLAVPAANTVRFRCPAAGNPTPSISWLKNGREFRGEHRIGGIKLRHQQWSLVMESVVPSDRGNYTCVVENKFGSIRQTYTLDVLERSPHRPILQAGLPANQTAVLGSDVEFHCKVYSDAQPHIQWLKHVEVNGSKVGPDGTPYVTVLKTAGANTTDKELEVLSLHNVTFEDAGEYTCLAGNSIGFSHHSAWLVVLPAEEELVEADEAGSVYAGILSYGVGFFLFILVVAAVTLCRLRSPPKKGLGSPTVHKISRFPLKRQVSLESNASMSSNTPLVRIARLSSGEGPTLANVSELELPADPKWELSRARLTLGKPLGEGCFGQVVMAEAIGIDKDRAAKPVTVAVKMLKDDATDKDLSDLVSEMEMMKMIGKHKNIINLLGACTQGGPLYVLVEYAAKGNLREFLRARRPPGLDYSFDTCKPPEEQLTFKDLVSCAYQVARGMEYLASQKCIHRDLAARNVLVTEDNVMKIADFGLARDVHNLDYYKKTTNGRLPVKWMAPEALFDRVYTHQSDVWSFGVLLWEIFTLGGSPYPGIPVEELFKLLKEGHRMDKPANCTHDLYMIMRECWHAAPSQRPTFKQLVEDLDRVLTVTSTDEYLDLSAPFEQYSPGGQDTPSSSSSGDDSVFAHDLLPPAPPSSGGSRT
Sequence of EPHB2 (P29323 whole entry, looked up): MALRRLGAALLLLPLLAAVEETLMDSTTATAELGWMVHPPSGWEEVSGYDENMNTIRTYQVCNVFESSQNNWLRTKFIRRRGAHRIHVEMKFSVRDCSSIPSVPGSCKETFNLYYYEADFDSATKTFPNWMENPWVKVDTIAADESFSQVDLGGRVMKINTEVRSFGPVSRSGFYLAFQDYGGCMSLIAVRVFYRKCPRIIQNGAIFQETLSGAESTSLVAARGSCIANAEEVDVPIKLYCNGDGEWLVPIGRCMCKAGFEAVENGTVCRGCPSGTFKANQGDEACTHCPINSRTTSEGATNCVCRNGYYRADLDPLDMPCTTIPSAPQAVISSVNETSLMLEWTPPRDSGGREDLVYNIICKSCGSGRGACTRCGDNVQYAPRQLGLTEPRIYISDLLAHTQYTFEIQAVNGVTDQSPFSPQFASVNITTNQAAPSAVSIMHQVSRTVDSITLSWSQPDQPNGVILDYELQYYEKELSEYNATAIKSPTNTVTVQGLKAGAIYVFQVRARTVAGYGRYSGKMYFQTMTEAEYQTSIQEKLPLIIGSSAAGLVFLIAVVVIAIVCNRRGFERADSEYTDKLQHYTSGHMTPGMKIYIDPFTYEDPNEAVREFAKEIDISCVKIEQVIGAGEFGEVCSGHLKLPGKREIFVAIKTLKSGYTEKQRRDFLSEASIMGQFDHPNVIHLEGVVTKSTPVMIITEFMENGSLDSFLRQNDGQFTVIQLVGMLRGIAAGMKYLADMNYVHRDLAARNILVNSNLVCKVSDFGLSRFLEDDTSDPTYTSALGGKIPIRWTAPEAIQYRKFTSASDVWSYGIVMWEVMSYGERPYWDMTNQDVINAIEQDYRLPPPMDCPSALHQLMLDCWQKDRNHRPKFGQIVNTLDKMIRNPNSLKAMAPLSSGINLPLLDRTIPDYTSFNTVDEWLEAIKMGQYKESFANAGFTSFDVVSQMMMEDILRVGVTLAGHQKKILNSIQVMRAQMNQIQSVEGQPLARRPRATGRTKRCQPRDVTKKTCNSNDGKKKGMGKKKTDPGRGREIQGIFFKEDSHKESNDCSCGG
Sequence of MERTK (Q12866 whole entry, looked up): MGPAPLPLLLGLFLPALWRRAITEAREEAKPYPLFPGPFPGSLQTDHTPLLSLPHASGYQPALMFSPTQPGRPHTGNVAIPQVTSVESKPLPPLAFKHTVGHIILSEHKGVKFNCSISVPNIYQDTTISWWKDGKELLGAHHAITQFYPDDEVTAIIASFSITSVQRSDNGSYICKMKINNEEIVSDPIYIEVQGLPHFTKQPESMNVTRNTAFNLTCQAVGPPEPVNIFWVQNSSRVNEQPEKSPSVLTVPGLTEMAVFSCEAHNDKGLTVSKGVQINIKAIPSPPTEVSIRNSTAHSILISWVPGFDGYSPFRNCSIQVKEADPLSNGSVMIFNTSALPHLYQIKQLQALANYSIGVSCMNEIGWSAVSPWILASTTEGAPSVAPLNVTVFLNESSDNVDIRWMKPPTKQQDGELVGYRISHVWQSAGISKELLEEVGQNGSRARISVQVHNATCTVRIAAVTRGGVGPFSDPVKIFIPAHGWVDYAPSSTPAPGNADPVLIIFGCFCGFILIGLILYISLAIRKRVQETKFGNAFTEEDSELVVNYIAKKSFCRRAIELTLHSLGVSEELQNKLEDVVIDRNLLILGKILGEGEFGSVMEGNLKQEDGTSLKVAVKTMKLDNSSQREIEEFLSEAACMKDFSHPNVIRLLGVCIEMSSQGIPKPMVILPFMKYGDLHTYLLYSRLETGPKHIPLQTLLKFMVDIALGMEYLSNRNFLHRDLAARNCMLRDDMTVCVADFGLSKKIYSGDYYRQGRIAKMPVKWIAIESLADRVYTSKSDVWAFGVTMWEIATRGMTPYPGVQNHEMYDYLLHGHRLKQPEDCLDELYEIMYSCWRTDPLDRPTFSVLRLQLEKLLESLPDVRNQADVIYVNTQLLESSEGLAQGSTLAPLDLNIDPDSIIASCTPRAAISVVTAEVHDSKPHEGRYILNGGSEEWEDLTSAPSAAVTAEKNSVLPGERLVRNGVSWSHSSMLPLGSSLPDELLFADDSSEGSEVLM
Sequence of EPHB1 (P54762 whole entry, looked up): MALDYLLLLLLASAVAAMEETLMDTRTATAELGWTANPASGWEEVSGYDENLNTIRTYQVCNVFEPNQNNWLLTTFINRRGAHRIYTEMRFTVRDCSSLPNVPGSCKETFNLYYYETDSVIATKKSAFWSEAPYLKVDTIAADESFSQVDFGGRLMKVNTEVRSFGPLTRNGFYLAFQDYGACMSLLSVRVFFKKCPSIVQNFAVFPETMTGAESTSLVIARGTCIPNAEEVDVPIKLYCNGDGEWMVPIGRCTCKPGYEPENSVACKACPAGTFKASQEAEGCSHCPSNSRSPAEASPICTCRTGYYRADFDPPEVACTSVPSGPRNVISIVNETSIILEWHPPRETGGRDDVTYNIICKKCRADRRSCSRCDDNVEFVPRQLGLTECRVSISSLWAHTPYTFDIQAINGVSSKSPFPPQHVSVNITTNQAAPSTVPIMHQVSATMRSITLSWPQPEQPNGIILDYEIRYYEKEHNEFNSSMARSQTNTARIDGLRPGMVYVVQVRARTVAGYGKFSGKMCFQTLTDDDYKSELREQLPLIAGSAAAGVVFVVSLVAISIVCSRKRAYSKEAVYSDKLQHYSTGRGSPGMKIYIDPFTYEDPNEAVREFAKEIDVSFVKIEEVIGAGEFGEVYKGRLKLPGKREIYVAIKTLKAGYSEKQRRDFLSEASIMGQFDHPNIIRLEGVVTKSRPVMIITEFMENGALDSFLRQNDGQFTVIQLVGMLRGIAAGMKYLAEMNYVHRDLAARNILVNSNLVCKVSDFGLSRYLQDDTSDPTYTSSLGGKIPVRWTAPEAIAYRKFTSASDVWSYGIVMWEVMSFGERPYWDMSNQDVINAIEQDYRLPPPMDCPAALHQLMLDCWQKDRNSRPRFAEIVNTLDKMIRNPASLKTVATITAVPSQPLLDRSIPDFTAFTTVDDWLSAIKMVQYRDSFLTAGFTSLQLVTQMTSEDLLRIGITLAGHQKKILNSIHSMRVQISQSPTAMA
Sequence of Grb2 SH2 (P62993 whole entry, looked up): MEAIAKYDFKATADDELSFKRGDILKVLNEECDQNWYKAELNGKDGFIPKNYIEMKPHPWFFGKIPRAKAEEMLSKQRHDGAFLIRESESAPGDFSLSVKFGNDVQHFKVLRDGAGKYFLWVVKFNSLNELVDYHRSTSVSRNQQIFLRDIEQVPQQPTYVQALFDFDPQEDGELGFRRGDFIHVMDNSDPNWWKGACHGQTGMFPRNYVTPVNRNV
Sequence of Hck (P08631 whole entry, looked up): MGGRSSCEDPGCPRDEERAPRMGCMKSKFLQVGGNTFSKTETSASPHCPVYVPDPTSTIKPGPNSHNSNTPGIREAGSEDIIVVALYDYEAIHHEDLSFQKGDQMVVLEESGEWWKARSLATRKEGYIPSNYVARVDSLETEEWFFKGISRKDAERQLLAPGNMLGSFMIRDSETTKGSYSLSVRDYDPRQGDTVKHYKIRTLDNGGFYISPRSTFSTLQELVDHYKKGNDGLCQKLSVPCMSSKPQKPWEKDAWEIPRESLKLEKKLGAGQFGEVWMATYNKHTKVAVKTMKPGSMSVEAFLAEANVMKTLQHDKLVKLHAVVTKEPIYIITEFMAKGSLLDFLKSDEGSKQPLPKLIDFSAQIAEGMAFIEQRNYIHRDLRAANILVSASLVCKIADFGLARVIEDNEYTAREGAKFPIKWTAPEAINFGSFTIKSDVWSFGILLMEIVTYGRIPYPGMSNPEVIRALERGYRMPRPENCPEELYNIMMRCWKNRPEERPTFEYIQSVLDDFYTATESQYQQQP

Sequence | phosphorylation enrichment (EPHB2) | phosphorylation enrichment (FGFR3) | phosphorylation enrichment (FGFR1) | phosphorylation enrichment (Jak2) | phosphorylation enrichment (EPHB1) | phosphorylation enrichment (MERTK) | phosphorylation enrichment (c-Src) | phosphorylation enrichment (Fer (mouse)) | phosphorylation enrichment (c-Abl (mouse)) | phosphorylation enrichment (Fyn) | phosphorylation enrichment (Hck) | phosphorylation enrichment (Fes) | phosphorylation enrichment (AncSZ) | SH2 binding enrichment (SHP2-C SH2) | SH2 binding enrichment (Grb2 SH2) | SH2 binding enrichment (c-Src SH2)
TSPKSCPSQKH [CAP2_Y316_Y316C] | 0.361 | 0.521 | 0.432 | 0.73 | 0.385 | 0.476 | 0.415 | 0.385 | 0.688 | 0.461 | 0.472 | 0.619 | 0.546 | 0.967 | 0.971 | 0.759
RASDYYSQQMA [GBP6_Y334_A331S] | 0.585 | 1.89 | 2.42 | 0.571 | 0.966 | 0.581 | 0.41 | 0.402 | 0.458 | 0.422 | 0.611 | 0.744 | 0.891 | 0.651 | 0.887 | 0.521
RQIQSYTCEID [DES_Y331_H326R] | 0.514 | 0.726 | 0.515 | 0.833 | 0.522 | 0.489 | 0.474 | 0.485 | 0.817 | 0.642 | 0.745 | 1.08 | 1.02 | 0.701 | 0.899 | 0.674
SDYSSYARTSI [TERT_Y949] | 2.84 | 0.7 | 0.553 | 0.725 | 1.63 | 0.52 | 0.897 | 0.542 | 0.639 | 0.845 | 0.862 | 0.558 | 0.792 | 0.637 | 0.725 | 0.535
VEDHFYEGGIG [TKT_Y564_YF] | 0.543 | 0.875 | 0.58 | 1.13 | 0.63 | 0.575 | 0.594 | 0.704 | 0.893 | 0.684 | 0.538 | 1.12 | 1.24 | 0.554 | 0.592 | 4.29
NTVLGYFIGCI [GARS1_Y408_R412C] | 0.63 | 0.828 | 0.457 | 1.18 | 0.653 | 0.381 | 0.465 | 0.598 | 0.826 | 0.491 | 0.467 | 1.31 | 1.19 | 0.514 | 0.906 | 0.438
KCCCIYEKPRS [PPP1R11_Y64_A69S] | 0.892 | 0.667 | 0.456 | 0.642 | 1.03 | 1.17 | 3.04 | 7.18 | 3.97 | 2.07 | 2.45 | 1.01 | 1.86 | 0.685 | 0.708 | 0.602
HGQVNYEEFVQ [CALM2_Y139_D134H] | 5.8 | 1.02 | 0.795 | 1.24 | 6.37 | 0.92 | 0.803 | 1.26 | 0.911 | 1.28 | 1.37 | 1.92 | 1.89 | 0.651 | 0.694 | 0.828
RPSELYFSKIS [SMG1_Y2253_G2258S_YF] | 1.05 | 1.1 | 1.22 | 1.06 | 2 | 0.886 | 0.691 | 0.724 | 0.834 | 1.4 | 2.85 | 1.4 | 0.933 | 0.702 | 0.741 | 0.758
ECKFLYSRKEG [PTPN11_Y263_L261F] | 0.594 | 0.593 | 0.495 | 0.849 | 0.576 | 0.436 | 0.423 | 0.362 | 0.639 | 0.537 | 0.618 | 0.939 | 0.969 | 0.626 | 1.06 | 0.6
DNPAKYFILES [DPP10_Y512] | 0.567 | 0.715 | 0.508 | 0.955 | 0.544 | 0.542 | 0.442 | 0.419 | 0.558 | 0.485 | 0.51 | 1.04 | 0.833 | 0.749 | 0.832 | 0.834
NTGDDYDLYGG [PTPN11_Y63_Y62D] | 1.05 | 0.683 | 0.51 | 0.912 | 0.581 | 0.494 | 1.65 | 0.775 | 0.684 | 1.51 | 2.47 | 1.17 | 1.33 | 0.521 | 0.804 | 0.522
EPNSRYTCKLE [USH2A_Y3745_Y3747C] | 0.562 | 0.724 | 0.621 | 0.897 | 0.556 | 0.497 | 0.539 | 0.566 | 0.762 | 0.563 | 0.549 | 0.985 | 1.02 | 0.826 | 1.06 | 0.576
KSAAIYNPVIY [RHO_Y301] | 0.744 | 1.25 | 1.41 | 0.573 | 0.805 | 3.42 | 6.12 | 15.4 | 0.727 | 7.54 | 8.17 | 0.72 | 0.758 | 0.581 | 1.1 | 1.02
EAVSIYQFHGQ [CBLC_Y402] | 1.62 | 0.594 | 0.554 | 0.852 | 2.31 | 5.19 | 7.06 | 10.4 | 0.969 | 5.93 | 3.09 | 0.926 | 1.01 | 0.511 | 0.757 | 0.464
AAGGRYDGLVG [HARS1_Y363] | 0.351 | 0.48 | 0.291 | 0.489 | 0.357 | 0.378 | 0.348 | 0.306 | 0.538 | 0.346 | 0.351 | 0.615 | 0.677 | 0.514 | 0.806 | 0.505
SVNIRYLLFPS [SERAC1_Y548] | 0.634 | 0.929 | 0.574 | 1.25 | 0.714 | 0.46 | 0.463 | 0.469 | 0.817 | 0.47 | 0.558 | 1.36 | 1.08 | 1.67 | 1.72 | 1.38
YLGEEYVKAVG [TF_Y674] | 0.391 | 0.523 | 0.446 | 0.698 | 0.454 | 0.403 | 0.444 | 0.393 | 0.645 | 0.465 | 0.329 | 0.823 | 0.908 | 0.788 | 0.795 | 0.509
FTRNYYVQAVL [CYBA_Y88_R90Q] | 0.558 | 2.67 | 1.59 | 1.06 | 0.66 | 0.887 | 0.538 | 0.512 | 0.813 | 0.486 | 0.521 | 0.981 | 1.01 | 0.834 | 0.839 | 0.591
PTTMTYFPHFD [HBA1_Y43_K41M] | 0.577 | 2.32 | 2.97 | 1.61 | 0.603 | 0.802 | 0.754 | 0.521 | 0.859 | 0.554 | 0.951 | 1.01 | 0.823 | 0.782 | 1.13 | 0.658
SGVSYYINLCQ [IGF2R_Y2025_N2020S] | 0.635 | 0.824 | 0.543 | 1.32 | 0.682 | 0.316 | 0.33 | 1.03 | 0.803 | 0.38 | 0.51 | 1.5 | 1.01 | 0.642 | 0.743 | 0.531
DKNSSYFADWL [TUBB8_Y340] | 0.53 | 1.38 | 1.51 | 1.39 | 0.573 | 1.15 | 0.512 | 0.564 | 0.746 | 0.584 | 0.492 | 1.09 | 1.13 | 0.853 | 0.99 | 0.766
IYQASYYRRGD [LTK_Y676_R673Q] | 0.66 | 0.473 | 0.479 | 0.528 | 0.659 | 6.37 | 6.2 | 1.43 | 11.5 | 7.6 | 10.6 | 0.695 | 0.822 | 0.742 | 0.628 | 0.412
QADVVYVNTQL [MERTK_Y872_I871V] | 1.17 | 0.648 | 0.88 | 0.728 | 0.66 | 0.372 | 0.738 | 3.51 | 0.631 | 0.729 | 0.729 | 1.8 | 0.822 | 1.43 | 4.29 | 0.718
SGETEYNPTEA [NBEAL2_Y2748] | 0.671 | 0.82 | 0.77 | 1.26 | 0.729 | 0.562 | 0.59 | 0.604 | 1.16 | 0.69 | 0.707 | 1.55 | 1.47 | 0.628 | 0.803 | 0.488
